According to US20180305450A1 (AstraZeneca / MedImmune, published 2018):
Where a chain is given by its changes, count along the chain named. Blank lines part the entries; values can stand above or below the binder they belong to.

Assays:
[1] = target: T1, recombinant biotinylated human PAR2 extracellular domain (residues 1-75), N-terminal AviTag, C-terminal Flag … (human, UniProt P55085 26-75, biotin on the AviTag (enzymatic biotinylation)); experiment: HTRF competition with Par0067 IgG, scFv
T1 construct: also called Bio-human-PAR2 ECD; human PAR2 ECD; not shown: N-terminal AviTag (Avidity LLC); C-terminal Flag and poly Histidine tags
T1 sequence (P55085 26-75): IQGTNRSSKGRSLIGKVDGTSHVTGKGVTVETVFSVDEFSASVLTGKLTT
Procedure: (§1) 5 μl/well of the appropriate pH 4.44 nM Par0067 IgG solution was added to all wells of the relevant assay plate (pH 7.4 and pH 6.0).
(§2) Test scFv Preparation/Addition: [0172] a) For parallel single point HTS of crude un-purified bacterial lysate scFv samples at both pH 7.4 and pH 6.0 samples were first pre-diluted to 40% of their neat concentration using either pH 7.4 or pH 6.0 assay buffer as appropriate. Subsequently 5 μl of 40% pre-diluted sample was then transferred into the appropriate assay (pH 7.4 or pH 6.0) in order to give a final assay sample concentration of 10.0% (in the 20 μl final assay volume). The parent Par0067 scFv was included in all HTS experiments as a control as were specific pH dependent antibodies as those became available (for benchmarking). […] Duplicate 11 point 1:3 serial dilutions then were prepared on 384 well polypropylene Greiner plates in each of the two assay buffers (pH 7.4 & 6.0). 5 μl per well of each serial dilution was transferred from the relevant pH scFv dilution plate to the corresponding assay plate (pH 7.4 and pH 6.0). 5 μl of the appropriate pH assay buffer was added to the total and non-specific wells. The parent Par0067 purified scFv was included in all multipoint dose response IC₅₀ experiments as a control as were specific pH dependent purified scFv as those became available (for benchmarking).
(§3) For multipoint dose response curves % Specific Binding values were plotted versus test purified antibody concentration (scFv or IgG). IC₅₀ values were determined via a sigmoidal dose response inhibition variable slope curve fit (4 parameter logistic equation) using Graphpad Prism Software.

[2] = target: T1, recombinant biotinylated human PAR2 …; experiment: HTRF competition with Par0067 IgG, pH 6.0, scFv
Procedure: as §1, §2, §3

[3] = target: T1, recombinant biotinylated human PAR2 …; experiment: HTRF competition with Par0067 IgG, pH 7.4, scFv
Procedure: as §1, §2, §3

B2: PaB670089 scFv (scFv, V domains shown)
VH: EVQLLESGGGLVQPGGSLRLSCAASGFTFSSYAMNWVRQAPGKGLEWVSTISYHGSHISHADHVHGRFTISRDNSKNTLYLQMNSLRAEDTAVYYCARINNDPMDVWGQGTLVTVSS
VL: SIELTQPPSVSVSPGQTASITCSGDNLGKKYVQWYQQKPGQSPVLVIYDDSNRPSGIPERFSGSNSGNTATLTISGTQAMDEADYYCQTWDGNPTTGETNVFGGGTKLTVL
notes: purified scFv; also called ZZ1ODR-C05
Fold IC50 (pH 6.0 v pH 7.4) [1]: 4.5 fold
Fold IC50 pH 7.4 (Variant v Par0067) [1]: 9.1 fold
IC50 [2]: 134 nM
IC50 [3]: 29.9 nM

B3: PaB670083 scFv (scFv, V domains shown)
VH: B2 VH with S52H, Y53H, H54S, S56H, H57L, I58H, H65K
VL: B2 VL
notes: purified scFv; also called ZZ1OZB-H05
Fold IC50 (pH 6.0 v pH 7.4) [1]: 3.4 fold
Fold IC50 pH 7.4 (Variant v Par0067) [1]: 13.7 fold
IC50 [2]: 152 nM
IC50 [3]: 45.2 nM

B4: PaB670071 scFv (scFv, V domains shown)
VH: B2 VH with H54S, H57L, H60Y, H63S, H65K
VL: B2 VL with Q88H, D91H, G92H, N93H, P94H, T95H, T99H, V101H
notes: purified scFv; also called ZZ1L3F-A02
Fold IC50 (pH 6.0 v pH 7.4) [1]: 4.2 fold
Fold IC50 pH 7.4 (Variant v Par0067) [1]: 30.7 fold
IC50 [2]: 425 nM
IC50 [3]: 101 nM

B5: PaB670076 scFv (scFv, V domains shown)
VH: B2 VH with H54S, H57L, H60Y, H63S, H65K
VL: B2 VL with Q88H, G92H, N93H, P94H, T99H
notes: purified scFv; also called ZZ1NHH-F09
Fold IC50 (pH 6.0 v pH 7.4) [1]: 6.3 fold
Fold IC50 pH 7.4 (Variant v Par0067) [1]: 14 fold
IC50 [2]: 292 nM
IC50 [3]: 46.2 nM

B9: PaB670081 scFv (scFv, V domains shown)
VH: B2 VH with Y53H, H54S, S56H, A61H, H63S, V64H
VL: B2 VL
notes: purified scFv; also called ZZ1OZA-C01
Fold IC50 (pH 6.0 v pH 7.4) [1]: 5.1 fold
Fold IC50 pH 7.4 (Variant v Par0067) [1]: 15.6 fold
IC50 [2]: 260 nM
IC50 [3]: 51.4 nM

B11: PaB670034 scFv (scFv, V domains shown)
VH: B2 VH with H54S, H57L, H60Y, H63S, H65K
VL: B2 VL with T96H
notes: purified scFv; also called ZZ1IGF-B11
Fold IC50 (pH 6.0 v pH 7.4) [1]: 2.5 fold
Fold IC50 pH 7.4 (Variant v Par0067) [1]: 1.7 fold
IC50 [2]: 14.2 nM
IC50 [3]: 5.6 nM

B12: PaB670085 scFv (scFv, V domains shown)
VH: B2 VH with H60Y, A61H, D62H, H63S, V64H, H65K
VL: B2 VL
notes: purified scFv; also called ZZ1ODR-A02
Fold IC50 (pH 6.0 v pH 7.4) [1]: 3.2 fold
Fold IC50 pH 7.4 (Variant v Par0067) [1]: 14.6 fold
IC50 [2]: 155 nM
IC50 [3]: 48.1 nM

B14: PaB670070 scFv (scFv, V domains shown)
VH: B2 VH with H54S, H57L, H60Y, H63S, H65K
VL: B2 VL with G92H, P94H, T95H, E98H
notes: purified scFv; also called ZZ1KXE-D06
Fold IC50 (pH 6.0 v pH 7.4) [1]: 4.5 fold
Fold IC50 pH 7.4 (Variant v Par0067) [1]: 18.3 fold
IC50 [2]: 270 nM
IC50 [3]: 60.4 nM

More lines, now with the values ahead:

Fold IC50 (pH 6.0 v pH 7.4) [1]: 5.2 fold
Fold IC50 pH 7.4 (Variant v Par0067) [1]: 16.5 fold
IC50 [2]: 283 nM
IC50 [3]: 54.5 nM
B1: PaB670084 scFv (scFv, V domains shown)
VH: B2 VH with Y53H, H54S, S56H, H57L, S59H, H63S, V64H, H65K
VL: B2 VL
notes: purified scFv; also called ZZ1PXA-A05

Fold IC50 (pH 6.0 v pH 7.4) [1]: 11.1 fold
Fold IC50 pH 7.4 (Variant v Par0067) [1]: 13.4 fold
IC50 [2]: 490 nM
IC50 [3]: 44.2 nM
B6: PaB670079 scFv (scFv, V domains shown)
VH: B2 VH with H54S, H57L, H60Y, H63S, H65K
VL: B2 VL with T89H, N93H, P94H, V101H
notes: purified scFv; also called ZZ1OZJ-G05

Fold IC50 (pH 6.0 v pH 7.4) [1]: 5.8 fold
Fold IC50 pH 7.4 (Variant v Par0067) [1]: 23.6 fold
IC50 [2]: 448 nM
IC50 [3]: 77.8 nM
B7: PaB670068 scFv (scFv, V domains shown)
VH: B2 VH with H54S, H57L, H60Y, H63S, H65K
VL: B2 VL with N93H, P94H, T96H, T99H, N100H
notes: purified scFv; also called ZZ1KXE-B01

Fold IC50 (pH 6.0 v pH 7.4) [1]: 9.3 fold
Fold IC50 pH 7.4 (Variant v Par0067) [1]: 15.8 fold
IC50 [2]: 487 nM
IC50 [3]: 52.2 nM
B8: PaB670066 scFv (scFv, V domains shown)
VH: B2 VH with H54S, H57L, H60Y, H63S, H65K
VL: B2 VL with Q88H, T89H, D91H, P94H, T95H, V101H
notes: purified scFv; also called ZZ1KX6-D05

Fold IC50 (pH 6.0 v pH 7.4) [1]: 3.2 fold
Fold IC50 pH 7.4 (Variant v Par0067) [1]: 12.4 fold
IC50 [2]: 131 nM
IC50 [3]: 40.9 nM
B10: PaB670087 scFv (scFv, V domains shown)
VH: B2 VH with H60Y, V64H, H65K, G66H
VL: B2 VL
notes: purified scFv; also called ZZ1ODR-B05

Fold IC50 (pH 6.0 v pH 7.4) [1]: 3.3 fold
Fold IC50 pH 7.4 (Variant v Par0067) [1]: 1.7 fold
IC50 [2]: 18.5 nM
IC50 [3]: 5.6 nM
B13: PaB670020 scFv (scFv, V domains shown)
VH: B2 VH with H54S, H57L, H60Y, H63S, H65K, N101H
VL: B2 VL
notes: purified scFv; also called ZZ1IGD-D05
